Measurements taken from patent publication US5844099, “Cytokine antagonists” (Regeneron Pharmaceuticals, Inc., dated 1998).

Legend:
[1] = biological target: CNTFRα, gp130 and LIFRβ on EW-1 cells; experiment: two site fit of CNTF binding on EW-1 cells; high affinity site
[2] = biological target: CNTFRα on EW-1 cells; experiment: two site fit of CNTF binding on EW-1 cells; low affinity site
[3] = biological target: human 125I-IL-6 (human) (UniProt P05231); experiment: dissociation of 20 pM 125I-IL-6 from 500 pM mAb B-E8 after adding 20 nM cold IL-6; precipitation with Protein G-Sepharose
[4] = biological target: T1, recombinant human IL-6 (human, UniProt P05231)
[5] = biological target: T2, CNTFRα:β1 (CNTFRα and gp130) on PC12D cells; experiment: Scatchard analysis of 125I-CNTF saturation binding on PC12D cells; high affinity site
T2 sequence (Q08406 whole entry, looked up): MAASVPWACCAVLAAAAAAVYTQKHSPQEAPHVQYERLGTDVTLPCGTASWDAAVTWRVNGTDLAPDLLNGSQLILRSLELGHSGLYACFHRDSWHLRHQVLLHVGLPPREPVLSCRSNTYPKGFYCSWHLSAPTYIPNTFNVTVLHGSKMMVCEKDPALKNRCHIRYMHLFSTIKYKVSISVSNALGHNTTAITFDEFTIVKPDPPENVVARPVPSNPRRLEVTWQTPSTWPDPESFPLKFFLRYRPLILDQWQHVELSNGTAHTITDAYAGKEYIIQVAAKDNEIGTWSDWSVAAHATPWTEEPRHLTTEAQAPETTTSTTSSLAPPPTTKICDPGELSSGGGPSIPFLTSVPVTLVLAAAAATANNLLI
T2 sequence (P40190 whole entry, looked up): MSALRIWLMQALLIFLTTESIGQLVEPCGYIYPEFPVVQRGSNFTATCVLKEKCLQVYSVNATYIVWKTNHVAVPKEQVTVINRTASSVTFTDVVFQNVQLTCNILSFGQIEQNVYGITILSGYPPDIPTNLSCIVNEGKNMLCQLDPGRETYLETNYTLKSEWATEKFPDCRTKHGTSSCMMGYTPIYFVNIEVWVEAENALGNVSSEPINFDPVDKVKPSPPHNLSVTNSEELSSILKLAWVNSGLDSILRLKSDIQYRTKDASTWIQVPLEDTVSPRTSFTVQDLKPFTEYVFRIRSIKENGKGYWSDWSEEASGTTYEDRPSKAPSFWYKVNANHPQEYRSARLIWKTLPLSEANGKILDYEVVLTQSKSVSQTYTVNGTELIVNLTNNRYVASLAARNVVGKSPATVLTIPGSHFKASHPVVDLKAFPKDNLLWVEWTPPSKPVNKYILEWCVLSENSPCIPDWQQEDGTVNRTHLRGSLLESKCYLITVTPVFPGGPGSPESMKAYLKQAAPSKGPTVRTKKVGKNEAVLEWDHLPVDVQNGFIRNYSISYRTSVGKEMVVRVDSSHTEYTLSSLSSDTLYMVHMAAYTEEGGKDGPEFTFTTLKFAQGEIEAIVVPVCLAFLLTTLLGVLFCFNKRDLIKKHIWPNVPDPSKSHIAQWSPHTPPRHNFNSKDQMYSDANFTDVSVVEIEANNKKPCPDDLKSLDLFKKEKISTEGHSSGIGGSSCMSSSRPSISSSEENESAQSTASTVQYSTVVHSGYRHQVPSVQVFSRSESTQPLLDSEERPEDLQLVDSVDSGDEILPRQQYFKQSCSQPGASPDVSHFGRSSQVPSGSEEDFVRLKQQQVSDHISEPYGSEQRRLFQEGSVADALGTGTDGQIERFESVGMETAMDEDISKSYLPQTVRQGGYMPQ

[6] = biological target: T3, CNTFRα on PC12D cells; experiment: Scatchard analysis of 125I-CNTF saturation binding on PC12D cells; low affinity site
T3 sequence (Q08406 23-342, looked up): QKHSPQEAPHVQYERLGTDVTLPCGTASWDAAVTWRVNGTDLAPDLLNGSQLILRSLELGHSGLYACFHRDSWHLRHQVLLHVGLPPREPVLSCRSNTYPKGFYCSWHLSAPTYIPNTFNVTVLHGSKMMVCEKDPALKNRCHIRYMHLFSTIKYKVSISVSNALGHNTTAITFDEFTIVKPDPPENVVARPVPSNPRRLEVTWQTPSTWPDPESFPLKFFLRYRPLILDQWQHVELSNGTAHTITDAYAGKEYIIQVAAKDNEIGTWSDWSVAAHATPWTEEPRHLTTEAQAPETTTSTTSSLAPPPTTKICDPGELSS

[7] = biological target: T1, recombinant human IL-6; experiment: cell-based or functional assay

CNTF (ligand) was tested, and the Kd [1] was 10 pM and the Kd [2] was 1000 pM.

In the case of “anti-IL-6 monoclonal neutralizing antibody B-E8”, the percent of the counts remaining associated after three days [3] is reported as < 5% and the IL-6-dependent proliferation of XG-1 cells (MTT assay) (fold molar excess over IL-6) [4] is reported as 10.

B1: 125I-CNTF (ligand, UniProt P20294 1-200, looked up, species assumed)
Ciliary neurotrophic factor: MAFAEQTPLTLHRRDLCSRSIWLARKIRSDLTALMESYVKHQGLNKNINLDSVDGVPVASTDRWSEMTEAERLQENLQAYRTFQGMLTKLLEDQRVHFTPTEGDFHQAIHTLMLQVSAFAYQLEELMVLLEQKIPENEADGMPATVGDGGLFEKKLWGLKVLQELSQWTVRSIHDLRVISSHQMGISALESHYGAKDKQM
modifications: 125I label
In the case of B1, the Kd [5] is reported as 9 pM and the Kd [6] is reported as 3400 pM.

B2: gp130-Fc homodimer (Fc fusion)
chain (part 1 of 2): ELLDPCGYISPESPVVQLHSNFTAVCVLKEKCMDYFHVNANYIVWKTNHFTIPKEQYTIINRTASSVTFTDIASLNIQLTCNILTFGQLEQNVYGITIISGLPPEKPKNLSCIVNEGKKMRCEWDGGRETHLETNFTLKSEWATHKFADCKAKRDTPTSCTVDYSTVYFVNIEVWVEAENALGKVTSDHINFDPVYKVKPNPPHNLSVINSEELSSILKLTWTNPSIKSVIILKYNIQYRTKDASTWSQIPPEDTASTRSSFTVQDLKPFTEYVFRIRCMKEDGKGYWSDWSEEASGITYEDRPSKAPSFWYKIDPSHTQGYRTVQLVWKTLPPFEANGKILDYEVTLTRWKSHLQNYTVNATKLTVNLTNDRYLATLTVRNLVGKSDAAVLTIPACDFQATHPVMDLKAFPKDNMLWVEWTTPRESVKKYILEWCVLSDKAPCITDWQQEDGTVHRTYLRGNLAESKCYLITVTPVYADGPGSPESIKAYLKQAPPSKGPTVRTKKVGKNEAVLEWDQLPVDVQNGFIRNYTIFYRTIIGNETAVNVDSSHTEYTLSSLTSDTLYMVRMAAYTDEGGKDGPEFTFTTPKFAQGEIESG
chain (part 2 of 2): HHHHHH
B2 was tested, and the “IL-6-dependent proliferation of XG-1 cells” value [7] was 1000 fold molar excess over IL-6.
